{"source": "patent US20130012916A1", "binders": {"B1": {"name": "Nanobody ALX0081sv1 (vWF0002) (VHH)", "chain": "DVQLVESGGGLVQPGGSLRLSCAASGRTFSYNPMGWFRQAPGKGRELVAAISRTGGSTYYPESVEGRFTISRDNAKRTVYLQMNSLRAEDTAVYYCAAAGVRAEQGRVRTLPSEYTFWGQGTQVTVSSAAAEVQLVESGGGLVQPGGSLRLSCAASGRTFSYNPMGWFRQAPGKGRELVAAISRTGGSTYYPESVEGRFTISRDNAKRTVYLQMNSLRAEDTAVYYCAAAGVRAEQGRVRTLPSEYTFWGQGTQVTVSS"}}, "key": {"vWF A1-domain [1]": {"target": "vWF A1-domain (UniProt P04275)", "experiment": "SPR (Biacore 3000), vWF A1-domain on CM5 chip, parallel line analysis"}, "vWF A1-domain [2]": {"target": "vWF A1-domain (UniProt P04275)", "experiment": "SPR (Biacore 3000), vWF A1-domain on CM5 chip, parallel line analysis; second of two independent analyses"}, "vWF A1-domain [3]": {"target": "vWF A1-domain (UniProt P04275)", "experiment": "SPR (Biacore 3000), vWF A1-domain on CM5 chip, parallel line analysis; first of two independent analyses"}}, "note": "Where “and” joins values, the source holds several entries; their conditions need not be identical. Equal values may be shown once.", "data": [{"binder": "B1", "values": [{"measurement": "relative potency versus reference (non lyophilised, stored at -70 C)", "setting": "vWF A1-domain [1]", "result": "94.8% and 117% and 93.3%"}, {"measurement": "relative potency versus reference (non lyophilised, stored at -70 C)", "setting": "vWF A1-domain [2]", "result": 96.1, "unit": "%"}, {"measurement": "relative potency versus reference (non lyophilised, stored at -70 C)", "setting": "vWF A1-domain [3]", "result": 94.6, "unit": "%"}]}]}
